The source of these data is PMC8224366.

In test [1] the target is EPN-p6 (enveloped protein nanocage monomer with the p6 domain; prokaryotic construct pET-EPN-His-p6) (HIV).
Test [2] addresses EPN-Fos-C (EPN monomer with the Fos domain at the C-end; prokaryotic construct pET-EPN-Fos-C) (HIV | not stated).
The target in test [3] is EPN-Fos-M (EPN monomer with the Fos domain between the Interaction domain and the Late budding domain; prokaryotic construct pET-EPN-Fos-M) (not stated | HIV).

Consider “NanoLuc-Vpr (NanoLuc luciferase fused with HIV viral protein R) (from UniProt P69726 1-96)”, for which, in test [1], the NanoLuc, molecules in a single nanocage, in EV p6 (estimated from luciferase assay and the EPN/NanoLuc molar ratio by MS/MS) (molecules in a single nanocage) is 1.5.

As for “NanoLuc-Jun (NanoLuc luciferase fused with the Jun leucine zipper domain)”, in test [2], the NanoLuc, molecules in a single nanocage, in EV C (estimated from luciferase assay and the EPN/NanoLuc molar ratio by MS/MS) (molecules in a single nanocage) was 15; the NanoLuc, molecules in a single nanocage, in EV C(lenti) (estimated from luciferase assay and the EPN/NanoLuc molar ratio by MS/MS) (molecules in a single nanocage) was 40. The NanoLuc, molecules in a single nanocage, in EV M (estimated from luciferase assay and the EPN/NanoLuc molar ratio by MS/MS) (molecules in a single nanocage) in test [3] is 21.
